{"source": "paper PMC7914648", "about": "(Pharmaceuticals, 2021)", "key": {"[1]": {"assay": "Aqueous solubility determination", "format": "physicochemical", "method": "For TAT-PAPTP and An2-PAPTP, three distinct suspensions were prepared by diluting 25 mM stock solutions in DMSO to 100 μM, in 0.9% NaCl saline or water (DMSO < 0.4%). The suspensions were sonicated 5 min and immediately analyzed. The suspensions were then centrifuged at 12,000× g, 18 °C, for 1 and 2 h, and the supernatants were analyzed by HPLC/UV at the end of each centrifugation. An additional analysis was performed after 24 h of standing. The chromatographic peak areas were used to determine the concentration of the compound in the supernatants, based on calibration curves built using solutions in DMSO."}, "[2]": {"assay": "Stability in blood (hydrolysis, PAPTPL release)", "format": "in vitro ADME", "conditions": "fresh heparinized C57BL mouse blood, 37 °C, 5 µM from 5 mM DMSO stock, HPLC-UV, % PAPTPL released relative to amount spiked, mean, n = 5 (An2-PAPTP) and 4 (TAT-PAPTP)", "method": "C57BL mice were anesthetized and blood was withdrawn from the jugular vein and heparinized. Blood samples (1 mL) were spiked with compound (5 µM; dilution from a 5 mM stock solution in DMSO) and incubated at 37 °C for 4 h (the maximum period allowed by blood stability). Aliquots were taken after 10 min, 30 min, 1 h, 2 h, and 4 h before HPLC-UV analysis.\nEach aliquot was treated as described above (Section 4.7.1). Compound stability in blood was expressed as % of PAPTPL released relative to the amount of An2-PAPTP and TAT-PAPTP spiked in the sample at time 0."}, "[3]": {"format": "in vivo, mouse", "conditions": "An2-PAPTP 5 µmoles/kg bw i.v. in mouse plasma", "method": "The brains of these mice were analyzed to evaluate the presence of the construct in the tissue (see Section 4.7). Each brain was homogenized and incubated with an equal volume of phosphate-buffered saline (PBS, pH 12.5) for 24 h; 10 volumes of ethyl acetate were then added. After vigorous mixing, the organic phase was collected, concentrated and analyzed via HPLC. This procedure allows hydrolysis of the carbamate bond, leading to the extraction of PAPTPL, which is considered proportional to the amount of peptide-PAPTP conjugate (or its fragments) present in the brain.\nThe protocol set up for PAPTPL recovery turned out to be inefficient for the quantification of TAT-PAPTP. An alternative protocol was thus developed. Tissue obtained from untreated mice was weighed and homogenized with PBS pH 7.4 (1 vol) with a potter. The pre-established amount of analyte was added into tissue homogenates and, after thorough vortexing, 1 vol of PBS pH 12.5 was added and the sample was incubated with intermittent vortexing at 60 °C for 24 h. This step is required to allow the hydrolysis of the carbamate bond connecting the peptide and PAPTPL. 10 vol of ethyl acetate were added and, after vortexing and sonication for 2 min, the sample was centrifuged at 12,000× g, 7 min, Room Temperature. The organic phase was collected and concentrated with Hetovac VR-1. ACN was added to the concentrated sample to allow the resuspension of PAPTPL and analyzed via HPLC. Quantification was as described for PAPTPL.\nBrain and liver obtained from untreated mice were weighed and homogenized with PBS pH 7.4 (1 vol) with a potter. The pre-established amount of analyte was added into tissue homogenates and, after thorough vortexing, 5 vol of acetone were added and the sample was sonicated for 2 min. Subsequently, 5 vol of ACN containing 0.1% trifluoracetic acid (TFA) were added and the sample was sonicated for 5 min. The sample was then centrifuged at 12,000× g for 7 min at 4 °C and the supernatant was collected, concentrated with a Hetovac VR-1, and analyzed via HPLC-UV.\nTo quantify the amount of An2-PAPTP stuck in the tissue, the pellet remaining after the procedure described above was incubated with intermittent Vortexing at 60 °C for 3 h with PBS pH 12.5/ACN 1:1 and then centrifuged at 12,000× g for 7 min. HPLC-UV analysis of the supernatant, measuring PAPTPL hydrolyzed from the tissue, thus indirectly reflects the amount of An2-PAPTPL in the pellet (Scheme 3). Quantification was as described for PAPTPL.\n(§1) A stock solution of the peptide-PAPTP conjugates was prepared in DMSO. TAT-PAPTP was administered at 8 and 5 μmol/kg bw and An2-PAPTP only at 5 μmol/kg bw. The calculated quantity of drugs was diluted from the stock solution in saline or mouse plasma to a final volume of 200 μL."}, "[4]": {"assay": "Preliminary brain levels after intraperitoneal An2-PAPTP", "format": "in vivo, mouse", "conditions": "An2-PAPTP 5 µmol/kg bw i.p. in DMSO; sacrifice at 20 min or 1, 2, 4 h; four mice", "method": "In preliminary tests An2-PAPTP was administered at 5 µmol/kg bw by the intraperitoneal (i.p.) route, using dimethylsulfoxide (DMSO) as the vehicle. […] Many brain-penetrating peptides bind to biomolecules such as proteins and cell structures such as membranes. Furthermore, the absence of a flowing bloodstream at the injection site may cause a poorly soluble molecule to remain confined in the vicinity of the point of delivery. […] Collectively, these preliminary results led to the adoption of the intravenous route. An2-PAPTP (5 µmoles/kg bw, in plasma) was thus administered by tail vein injection to mice."}, "C57BL mice": {"test_system": "C57BL mice", "assay": "Observed toxicity after tail vein injection", "format": "in vivo", "conditions": "5 µmoles/kg bw by tail vein injection in mouse plasma; no proper toxicological study", "method": "TAT-PAPTP (5 µmoles/kg bw) was administered by tail vein injection to 2 C57BL mice. […] The observed toxicity was not due to the use of plasma, since mice were not made ill by the administration of PAPTP or An2-PAPTP in the same vehicle (see below, Section 2.7).\nas §1"}, "mouse Red Blood Cells": {"test_system": "mouse Red Blood Cells", "assay": "Haemolysis assay", "format": "cell-based", "conditions": "5 × 10^7 mouse erythrocytes in 1 mL PBS pH 7.4, 2, 1 or 0.5 µM, 15 min, absorbance 540 nm, n = 3", "method": "Haemolysis studies were conducted as described in [72]. Briefly, freshly withdrawn blood samples were centrifuged at 1000× g for 10 min to obtain erythrocytes; the pellet was then washed thrice with sterile PBS (pH 7.4). Erythrocytes (5 × 10^7 cells in 1 mL of PBS for each experimental condition) were incubated with 2, 1 or 0.5 µM An2-PAPTP or TAT-PAPTP for 15 min. The samples were then centrifuged and absorbance (Abs) of the supernatant was measured at 540 nm. Triton X-100 1% and PBS were used as positive and negative control, respectively.\nThe percentage of haemolysis was calculated with the following equation:% haemolysis = [(Abssample − AbsPBS)/AbsTriton X-100 − AbsPBS)] × 100"}}, "note": "“Also recorded” adds a separate entry of the source.", "data": [{"smiles": "CC[C@H](C)[C@H](NC(=O)Oc1ccc(CCCOc2ccc([P+](CCCc3ccc(OCCCCOc4c5ccoc5cc5oc(=O)ccc45)cc3)(c3ccccc3)c3ccccc3)cc2)cc1)C(=O)N[C@H](C(=O)N[C@@H](Cc1ccccc1)C(=O)N[C@@H](Cc1ccccc1)C(=O)N[C@@H](Cc1ccc(O)cc1)C(=O)NCC(=O)NCC(=O)N[C@@H](CO)C(=O)N[C@@H](CCCNC(=N)N)C(=O)NCC(=O)N[C@@H](CCCCN)C(=O)N[C@@H](CCCNC(=N)N)C(=O)N[C@@H](CC(N)=O)C(=O)N[C@@H](CC(N)=O)C(=O)N[C@@H](Cc1ccccc1)C(=O)N[C@@H](CCCCN)C(=O)N[C@H](C(=O)N[C@@H](CCC(=O)O)C(=O)N[C@@H](CCC(=O)O)C(=O)N[C@@H](Cc1ccc(O)cc1)C(=O)O)[C@@H](C)O)[C@@H](C)O", "note": "[An2-PAPTP]", "values": [{"measurement": "solubility in 10 mM phosphate buffer", "setting": "[1]; 10 mM phosphate buffer, supernatants after centrifugation, HPLC", "value": "precipitated"}, {"measurement": "solubility in 0.9% NaCl saline", "setting": "[1]; 0.9% NaCl saline, kinetic, 25 mM DMSO stock diluted to 100 μM (DMSO < 0.4%), sonicated 5 min, centrifuged 12,000 × g 18 °C 1 and 2 h, supernatant HPLC/UV, detection limit 0.1 µM", "value": "precipitated in saline; also recorded: insoluble in saline"}, {"measurement": "solubility in water", "setting": "[1]; water, kinetic, 25 mM DMSO stock diluted to 100 μM (DMSO < 0.4%), sonicated, centrifuged 12,000 × g 18 °C, supernatant HPLC/UV", "value": "above 100 μM"}, {"measurement": "hydrolyzed in mouse blood over 4 h (PAPTPL released)", "setting": "[2]", "value": "about 60%"}, {"measurement": "Brain Psoralenic Species (nmol/g Tissue), 15 min", "setting": "[3]; 15 min, PAPTPL after carbamate hydrolysis, mean ± SEM, n = 5", "value": "0.3 ± 0.1", "unit": "nmol/g Tissue"}, {"measurement": "Brain Psoralenic Species (nmol/g Tissue), 30 min", "setting": "[3]; 30 min, PAPTPL after carbamate hydrolysis, mean ± SEM, n = 4", "value": "0.4 ± 0.6", "unit": "nmol/g Tissue"}, {"measurement": "presence in brain one hour post-injection", "setting": "[3]; one hour", "value": "only a trace could be detected"}, {"measurement": "detection in brain after i.p. administration", "setting": "[4]", "value": "no An2-PAPTP or PAPTPL could be detected"}, {"measurement": "observed toxicity in mice", "setting": "C57BL mice", "value": "not made ill; also recorded: considerably less toxic than TAT-PAPTP; also recorded: did not show toxicity"}, {"measurement": "haemolysis (release of haemoglobin)", "setting": "mouse Red Blood Cells", "value": "did not induce a measurable release of haemoglobin"}]}]}
